In assay [1] the target is T1, human C5 (Quidel, cat. no. A403) (human, UniProt P01031 19-673; P01031 678-1676, limits assumed).
T1 construct: Bought protein; also called hC5; human complement component 5
Description: BLI (ForteBio), compound captured on HSA sensor, human C5 0.79-25 nM, 1:1 model.

Assay [2] concerns the target T2, human PDGF-Rβ (R&D Systems, cat. no. 385-PR-100/CF) (human, UniProt P09619 33-530, limits assumed).
T2 construct: Bought; also called platelet-derived growth factor receptor beta
Description: SPR Biacore 2000, PDGF-Rβ on CM5 chip, 1:1 binding with mass transfer; sample (0) before stability test; reference Z15805 (0). A general note: In SPR one partner is held on a chip, and binding of the other changes the refractive index at the surface.

The target of assay [3] is T2, human PDGF-Rβ (R&D Systems, cat. no. …). Briefly: SPR Biacore 2000, PDGF-Rβ on CM5 chip, 1:1 binding with mass transfer; sample (2w) after 2 weeks at 37 C; reference Z15805 (2w).
Assay [4] shares this target. Description: SPR Biacore 2000, PDGF-Rβ on CM5 chip, 1:1 binding with mass transfer; KD after 2 weeks at 37 C against KD before.
For assay [5] the target is unchanged. Description: SPR Biacore 2000, PDGF-Rβ on CM5 chip, 1:1 binding with mass transfer; sample (0) before stability test.
The target is the same in assay [6]. Briefly: SPR Biacore 2000, PDGF-Rβ on CM5 chip, 1:1 binding with mass transfer; sample (2w) after 2 weeks at 37 C.
Assay [7] addresses T3, human HER2-Fc (R&D Systems, cat. no. 1129-ER-050) (human, UniProt P04626 23-652).
T3 construct: Bought; also called human epidermal growth factor receptor 2; not shown: Fc part of the bought fusion protein
Description: SPR Biacore 2000, HER2-Fc on CM5 chip, 1:1 Langmuir; sample (0) before stability test.

Assay [8] addresses T3, human HER2-Fc (R&D Systems, cat. no. …). Briefly: SPR Biacore 2000, HER2-Fc on CM5 chip, 1:1 Langmuir; sample (0) before stability test; reference Z02891 (0).
Assay [9] has the same target. Briefly: SPR Biacore 2000, HER2-Fc on CM5 chip, 1:1 Langmuir; sample (2w) after 2 weeks at 37 C; reference Z02891 (2w).
Assay [10] shares this target. Briefly: SPR Biacore 2000, HER2-Fc on CM5 chip, 1:1 Langmuir; sample (2w) after 2 weeks at 37 C.
Assay [11] shares this target. Description: SPR Biacore 2000, HER2-Fc on CM5 chip, 1:1 Langmuir; KD after 2 weeks at 37 C against KD before.

T2 sequence (P09619 33-530 limits assumed): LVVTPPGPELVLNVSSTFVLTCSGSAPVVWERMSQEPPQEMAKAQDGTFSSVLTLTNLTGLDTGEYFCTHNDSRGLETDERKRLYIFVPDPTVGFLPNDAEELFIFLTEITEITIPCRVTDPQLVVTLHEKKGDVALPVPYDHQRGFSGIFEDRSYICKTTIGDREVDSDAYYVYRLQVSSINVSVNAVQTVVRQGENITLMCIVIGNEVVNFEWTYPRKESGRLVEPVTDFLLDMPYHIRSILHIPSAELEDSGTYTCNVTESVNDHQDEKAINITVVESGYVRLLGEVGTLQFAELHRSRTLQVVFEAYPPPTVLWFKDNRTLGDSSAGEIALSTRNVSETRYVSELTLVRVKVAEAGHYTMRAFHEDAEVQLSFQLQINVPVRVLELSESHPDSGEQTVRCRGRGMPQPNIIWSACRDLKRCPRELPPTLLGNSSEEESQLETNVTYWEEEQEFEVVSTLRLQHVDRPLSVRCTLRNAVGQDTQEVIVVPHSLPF

B1: PSI0383 (designed binder)
chain: AEAKYAKEVLEAWDEIDRLPNLTIEQWLAFINKLDRQPEQSSELLSEAKKLSESQAPKVEGSLAEAKEAANAELDSYGVSDFYKRLIDKAKTVEGVEALKDAILAALP
notes: positions 52-53 changed from ND to SE against PSI0242
In the case of B1, the “Rel. KD” value in [1] was 2.1 ratio to PSI0242.

B2: Z17344 (designed binder)
chain: MGSSHHHHHHLQAEAKYAKELIEAAAEIDALPNLTRRQWNAFIKKLVRQPEQSSELLSEAKKLSESQAPK
The molecule B2 came in with a KDInv/KDOrig in assay [2] of 6.19 ratio. Also, in [3], the KDInv/KDOrig was 3.88 ratio. The “KD(2w)/KD(0)” value in assay [4] is 0.93 ratio. Further, in [5], the equilibrium dissociation constant (Kd) (as a rule, the equilibrium constant for the complex coming apart) stood at 1.2 nM; the koff – broadly, the first-order rate constant of dissociation – came out at 0.0616 s⁻¹; the association rate constant (kon) – broadly, the rate constant with which the complex forms – stood at 5.15e+07 M⁻¹ s⁻¹. In assay [6], this molecule yielded a Kd of 1.1 nM, a koff of 0.0623 s⁻¹ and an on-rate (kon) of 5.62e+07 M⁻¹ s⁻¹.

B3: Z17342 (designed binder)
chain: MGSSHHHHHHLQAEAKYAKEMRNAYWEIALLPNLTNQQKRAFIRKLYRQPEQSSELLSEAKKLSESQAPK
As to B3, in assay [7], the Kd was determined as 1.8 nM, the dissociation rate constant (koff) is 0.00157 s⁻¹ and the on-rate (kon) was determined as 894000 M⁻¹ s⁻¹. In assay [8], this molecule returned a KDInv/KDOrig of 33 ratio. Moreover, the KDInv/KDOrig in assay [9] was found to be 37 ratio. In assay [10], the dissociation constant (Kd) came out at 2.3 nM, the dissociation rate constant (koff) was determined as 0.0015 s⁻¹ and the kon was 649000 M⁻¹ s⁻¹. For the same molecule, the “KD(2w)/KD(0)” value in [11] amounted to 1.31 ratio.

The record behind these values is patent USRE49495E1, “Binding polypeptides having a mutated scaffold” (Affibody AB, priority 2013, dated 2023).
